According to the DeepSol protein solubility set:

Experiment: soluble on expression in E. coli; label from the status in PepcDB or PDB records

Soluble on expression in E. coli, not soluble:
MGSDKIHHHHHHMTNSIMALPSSIRHYRRKQMAINQVAQTPAISPLTIKERTGSISTAEMISVLKGETTALHIKQAFSTEVAEEITTNFLGSPGLKERKDGVPGQYVGASHYRKDAATYFAESETARPHVDALFENLVDPVRGSFDALKRELHKQGIELRLARSEHGHANVCRALSWSGSGTFSLDPHDDVAQVLSAGNDYELSAVAHNTVAALNFYPSMPEEGGNLRLWSHKPTVADRKSQGVETTGYPYSSAYLEAVPCREFQLKPGDIALIDGGFVHGVTGQSGNGKRRLVLNSFFGFARPDLVLWWT, MGSDKIHHHHHHMTNWNLWRTLNMEYIINPCSGIKIKITRGQKIKIVDIEGGQVVDFFAEMKDDSTEFISPGVTIDCNESLRLQVGNLIYSNKYRPMFKILYDDVREHDLLHPCCRPEMYDFFYHNGENHPNCFDNINRTLGTSHQIIHPINFFMYTKVNTDGSIEVCEPLSKANDKIILEALENMTLGIAACSVSESSCNSRKCTSIKILVD, MGSDKIHHHHHHMTPLAPHEASQDESAIAERIASAMPRMTPIHRRMGEFVLANPFRAATMRIDELAQAVNASIATANRFAKALGFDGYPAMRAALVRGFEATLGPVERLRSAQEQEQEQGVRGAAWIDAVFDQAIENIENTRARLDATDVEAAVEAIVGARRVLILGAGSSAFLTGLMEHGLSVCHDNVQSLALLGGPTHAARRLYTADSRDLVIALAFPRYVKDTIELARRAAARGARVLGISDGPGSPLAPVASLNLYVKAQRRFAATSEAAVLTMIEALIDAVALRTHRSAKSAAEMTEFLLPWLMQPPAALPAANPSSSGPKKS, MGSDKIHHHHHHMTQDLAQFAAERGIKYFMISYTDLFGAQRAKLVPAQAIADMQKDGAGFAGFATWLDLTPAHPDLFAVPDASSVIQLPWKKDVAWVAADCVMDDKPVEQAPRVMLKKLVDEAASMGLRVKTGVEPEFFLISADGKTISDEFDTAEKPCYDQQALMRRYDVIAEICDHMLELGWKPYQNDHEDANGQFEMNWEYDDALKTADKHSFFKFMVKSVAEKHGLRATFMPKPFKGLTGNGCHAHISVWDNDGKVNAFADKAMPFGLSAKGKTFLGGIMKHASALAAVTNPTVNSYKRINAPRTVSGATWAPNTVTWTGNNRTHMVRVPGPGRFELRLPDGAVNPYLLQAIIIAAGLSGLKTNADPGPHYDIDMYREGHTVTDAPKLPLNLLDALRAYEADTELQQALGEEFSAAYLKLKHGEWTSYCSQFTPWEHQTTLDI, MGSDKIHHHHHHMTQSFIVDEAFWQLFPEVEIAFLTAQDIDNHAKEQVPTDLLTTANHVAATKWVPNDPISQNTVVQDWRQAFQQFKTKKGARCAVENLLKRAKNGKGVGTINPVVDVYNSVSLEWAFPVAAEDMDQIKGDIHLTVAQGGERFRPIGEDDVETALPGEVIYRDAYDVISRCWAWRDSARVEATEATQNLLFYMENVNPQRHADHVAATAALRTRLHDYLGISTTLHVVTHDQPSVAFKD, MGSDKIHHHHHHMTQSPDLQAVLDYADAHMNDSLARLFDLVRIPSVSTVPAHAGDCRAAAQWLSDQLNDLGFDASVRPTGGHPMVVAHQTDADGPHVLFYGHYDVQPVVPLELWKTDPFEPTLEPQPNGDTHITGRGASDDKGQLLTFIEACRAWKAVTGRLPIKVSMLFEGEEESGSQSLGPFLEQTAEELRADVMMVCDTDMWDRDTPAITTMLRGLVGEEFTITTADRDLHSGMFGNAARNALQVASDAIAGLRGPDGGVTLPGFYDGVEDLAPEIKAQWKSLPFDQEGFLSDVGLSLPAGEDAYSIMEQIWARPSCEIHGVIGGYTDEGFKTVIPAKATAKVSFRLVAGQDPARIREAFRAHIRAYVPKDCSVEFTSHGASPALSLPLDSPYLTATREALSQEWGTEAALAGTGGSIPIVGEFKRQLGMDTLLVGFARFDNRIHSPNEKYDLSSFTGGIRSFVRVLAALSEIEAAAAP, MGSDKIHHHHHHMTQTSSPLRNRYEFLLLFDVENGNPNGDPDSGNAPRVDPEDGHGLVSDVALKRRVRNYVQAAGEQIFIQHGTNLNRPIFQAKQASGGGSKGKQDVDAARRWMCEHFYDVRTFGAVMSTGANAGQVRGPVQLTFARSLDPVFAIEASITRGAVAEDIKNAKTLDDFLNWEAQQDEDKLRTMGRKSLIPYGLFATKGFVSAHLAQGTGFSEADLKLLLEALLNMYEHDRSASKGLMSSRRLFVFRHVGTDSDPQQRARQAVLGCAPAHKLLDLGQVIEVRRKDEHKPARALSDYEVTVHLDRLPAGVELLDLDSWDEARYHDGWQSR, MGSDKIHHHHHHMTQVPPSASPADLLAVLERIATALERQGAPAVPANSLDGADAFVWHAAESWLEPVCRVNRVDIALLQGIERQRQTLYDNTLRFAHGLPANNALLWGARGTGKSSLVKAVHASVNQALTAKGAAPVALVEIHREDIPTLPRLLRILAASGRPCLLFCDDLSFDGNDSSYKSLKAVLEGGIEGRPDTVIFYATSNRRHLLAREMVENEQSTALHAGEAVEEKVSLSDRFGLWLGFHNVDQPTYFDIVDGYARAYGLDIETEDLHREAREWSMARGSRSGRTAWQFIQDLAGRLGKTLE, MGSDKIHHHHHHMTRTTLEAGVTRRDVLKVAGLTGLGAALYASGLERWLPRALTAEATNQVPFYGKYQAGILTPPQNHVQIVAFDVQTTRRDELIDLLKRWTRACARLTAGLPLGDSDSLYVPPEDTGEAEGLSASHLTFTFGCGHGLFADDRFEIGHKRPNLLRELPAFDLDQLDPKWAGGDLVVQICADDQQVVFHALRNLTRIGRGIVKIRWTQTGFQRSKAADATGGTPRNLFGFKDGTGNPDVSQPAIRNKHLFYQWQDGSPWMTNGSFLVVRRIQMHLEVWDRTILKEQERTFGRDRASGAPLGSKDEFASVTPSKRTARGEASLPKDSHTAVAHGSGEAQLLRRSYSYQAGINETTGALDAGLLFLSYQRSPEQFITIQRRLAASDRLNEYITHRGSALFACFGGIQKGGYIGDALFA, MGSDKIHHHHHHMTSREDEIRDFLATHGYADWNRTPLAGDASSRRYQRLRSPTGAKAVLMDWSPEEGGDTQPFVDLAQYLRNLDISAPEIYAEEHARGLLLIEDLGDALFTEVINNDPAQEMPLYRAAVDLLIHLHDAQTPELARLDPETLSEMTRLAFSEYRYAILGDAAEDNRKRFEHRFAQILSAQLEGDMVFVHRDFHAQNLLWLPEREGLARVGVIDFQDAKLGHRAYDLVSLLQDARRDVPAQVEAQMIDHYIQATGVDESHFRSAYAVIAVQRNMRILGIFARLSQRFGKRHYIEFVPRVWAHFERGLAHPALASAAEEILNALPAPAPEVLERLRA, MGSDKIHHHHHHMTSTVFAQSDDFTTWTKFKVNYKIDPRFSLLSNLEFRTKDDVSRMDRLGLAIGGEYRAYSFLKLEAGYETHFRNLGDSEWKFRHRYNFGATASFQYQWLKIALRERFQQTFDRGDSKARLRSRLKLAYAPEKGIVSPYFSIEIYQSLDDAPFWRADRMRYRPGVEIALAKRWALDIFYCYQYESPKGKHIAGVEIGYSF, MGSDKIHHHHHHMTTAQHTVEKIGGTSMSNYEAVRDNIIIGKRKKSDLYQRIFVVSAYGGVTNELLEHKKTGEPGVYALFADAESDWAWGDDLTKLIQLLTDINGELFADPMLKQQADQFITDRIEGVRGCLIDLQRLCSYGQFQLEEHLLTVREMLAGIGEAHSAFNTALKLQQEGINARFVDLTGWRDSELLPLDEKLKQAFDAIDLSRELPIVTGYAQCKEGLMRTFDRGYSEMTFSRTAVITNAREAIIHKEYHLSSADPNIVGEDKVVPLGRTNYDVADQLANLGMEAIHPRAGKGLRQNEIPLRVMNTFEPEHTGTLITGDYVSEKPQVEIVAGAKGVFAIEVFDQDMQGEPGSDRRILDVLSRFKVRFMSKDTNANTITHYVDTTLKHVKRVVKALEEEFPNAEISTRKVALVSAIGSDMKVPGILARSVKSLADNDISVLAIHQCMRQVDIQFVVDEDKYDQAIVALHGALIEPHNHEYAIVAASTTAG, MGSDKIHHHHHHMTTFTAKFIDQEWEVPVESGRYHMIVGEFCPYAQRPQIARQLLGLDKHISISFVDDVPSDIGLIFSQPEQVTGAKSLRDIYHLTDPTYQGPYTIPILIDKTDNRIVCKESADLLRLFTTDFSDLHQEDAPVLFSQETASLIDNDIKDINKNFQSLMYKLAFLDKQADYDTYSKEFFTFLDQKEHLLGQRPFLLGDNLSEVDIHFFTPLVRWDIAGRDLLLLNQKALEDYPNIFSWAKTLYNDFNLKTLTNPQSIKNNYYLGKFGRAVRHHTIVPTGPNMAKWEK, MGSDKIHHHHHHMTTLNAIFRPFIQPHRYKIAKGGRGSGKSWAIARLLVEIARRGTYRFLCAREFQASMADSVIQLIADTIQREGYLKEFEIQKAYIRHLAATDSLFMFYGIKNNVTKIKSLEGIDIAWVEEAEAVTKESWDILIPTIRKPGSEIWVSFNSKNILDDTYQRFVVNPPDDICLLTVHYTDNPHFPEVLRLEMEECKCKDYDLYLHIWEGQPVADSDLAIIKPLWIAAAVDAHMTLGFDAVGEKRLGFDVADEGKTATPCALCRAQSC, MGSDKIHHHHHHMTTYRTVSIDGLDIFYREAGSRNNPTILLLHGFPTSSHMFRNLIPALADKFHLVAPDYPGYGNSSMPTVNEFDYTFDNLAEIVEKFIAAIALKKYSLYVMDYGAPIGYRIAAKYPERVQSLIVQNGNAYEEGLREFWEPIKAYWQERSPENAEKLKYLVTLEATKWQYTNGVRNLEAISPDTWTMDQHFLDRPGNDEIQLALLYSYGTNPLLYPQWQEYFRNYQPPTLIVWGKNDYIFPADGAYPYQRDLKDVEFHLLDTGHFALEEDGDAIANYIDQFLTSRLQSIPV, MGSDKIHHHHHHMTVLIVTFSNDNESIPLVIKEIEARGEKAFRFDTDRYPTEVKLDIYCGDTERVIITDGEQKLDLSEVSSVWYRRMRYGQKIPDSMDKQYRDASIQECRVTVRGMIASLPGFHFDQMANVDRANNKQLQLKVAKEVGLLTPRTLTSNNPEAVKKFAQDCPQGIITKMLSSFAIYDDQGRENVVFTTPITNDDLENMEGLCFCPMTFQENIPKALELRTTIVGHHVFTAAVDSQSLQGSTYDWRKEGKNLAKNWQPYNLPEDIEKKLLKLMANFGLKYGAIDIIVTPDGRHVFLEVNPVGEFFWMEIYPPYYPISQAIAEILLTHKS, MGSDKIHHHHHHMTVNDKKRLAIIGGGPGGLAAARVFSQSLPNFEIEIFVKDYDIGGVWHYPEQKSDGRVMYDHLETNISKKLMQFSGFPFEENVPLYPSRRNIWEYLKAYYKTFIANKDAISIHFSTEVTYLKKKNSQWEITSKDELRTTKSDFDFVIVASGHYSVPKLPTNIAGLDLWFDNKGAFHSKDFKNCEFAREKVVIVVGNGSSGQDIANQLTTVAKKVYNSIKEPASNQLKAKLIETVQTIDSADWKNRSVTLSDGRVLQNIDYIIFATGYYYSFPFIEPSVRLEVLGEGVTGDKHSSVNLHNLWEHMIYVKDPTLSFILTPQLVIPFPLSELQAAIMVEVFCKSLPITTTFDSNACGTHNFPKERTWNTMQNYRNY, MGSDKIHHHHHHMTYLVTGATGGLGGYALNYLKELVPMSDIYALVRSEEKGADLKAAGFNIRVGDYSDAESMKQAFVGIDRVLFVSGAPGNRQVEHENVVNAAKAAGVSYIAYTSFAGADKSTSALAEDHFFTEKVIEKSGIAHTFLRNNWYFENEMPMIGGALSAGKFVYAAENGKVGWALKREYAEVAAKAVAGADFPEILELSGPLMTYEELTKALKEATGKDFDVISSDDKGFVENLVSAGLPQPVAEMFLSFQHDIKNDQLDVTSDDFEKALGKPLTNRVDALRELLK
